According to US20250179143A1, “SYSTEMS AND METHODS FOR CHAPERONE-MEDIATED LIGAND EXCHANGE ON MHC-I AND MHC-RELATED MOLECULES USING CHICKEN TAPBPR” (priority 2022, published 2025):

B1: chTapasin: recombinant luminal domain of chicken Tapasin, a homolog of TAPBPR (protein)
chain: QFRVEDAASPPPPPAPVRCALLEGVGRGGGLPGGGNARPALLRFGGDAETPPEPGPEPEVTFNVSDPWGTLTPLGVPPRTPPSCELNPTNPQTGSDPWSRPLHPDARSPPTAGGQWWVAAVGTPQYGVTALLQGGMGTEGTITAAVALAVLTHTPTLRARVGSPIHLHCAFAAPPSSFVLEWRHQNRGAGRVLLAYDSSTARAPRAHPGAELLLGTRDGDGVTAVTLRLARPSPGDEGTYICSVFLPHGHTQTVLQLHVFEPPKVTLSPKNLVVAPGTSAELRCHVSGFYPLDVTVTWQRRAGGSGTSQSPRDTVMDSWTSGHRQAADGTYSRTAAARLIPARPQHHGDIYSCVVTHTALAKPMRVSVRLLLAGTEGPHLEDIT
B2: hTAPBPR^KRQ: human TAPBPR mutant R105K, K211R, R270Q (protein)
chain: KPHPAEGQWRAVDVVLDCFLAKDGAHRGALASSEDRARASLVLKQVPVLDDGSLEDFTDFQGGTLAQDDPPIIFEASVDLVQIPQAEALLHADCSGKEVTCEISKYFLQMTETTVKTAAWFMANMQVSGGGPSISLVMKTPRVTKNEALWHPTLNLPLSPQGTVRTAVEFQVMTQTQSLSFLLGSSASLDCGFSMAPGLDLISVEWRLQHRGRGQLVYSWTAGQGQAVRKGATLEPAQLGMARDASLTLPGLTIQDEGTYICQITTSLYQAQQIIQLNIQASPKVRLSLANEALLPTLICDIAGYYPLDVVVTWTREELGGSPAQVSGASFSSLRQSVAGTYSISSSLTAEPGSAGATYTCQVTHISLEEPLGASTQVVPPERR
B3: moTAPBPR: recombinant luminal domain of mouse TAPBPR, XP_030111162.1 (protein)
chain: TDPPTAPTTAERQRQPTDIILDCFLVTEDRHRGAFASSGDRERALLVLKQVPVLDDGSLEGITDFQGSTETKQDSPVIFEASVDLVQIPQAEALLHADCSGKAVTCEISKYFLQARQEATFEKAHWFISNMQVSRGGPSVSMVMKTLRDAEVGAVRHPTLNLPLSAQGTVKTQVEFQVTSETQTLNHLLGSSVSLHCSFSMAPGLDLTGVEWRLQHKGSGQLVYSWKTGQGQAKRKGATLEPEELLRAGNASLTLPNLTLKDEGNYICQISTSLYQAQQIMPLNILAPPKIQLHLANKDPLPSLVCSIAGYYPLDVGVTWIREELGGIPAQVSGASFSSLRQSTMGTYSISSTVMADPGPTGATYTCQVAHVSLEEPLTTSMRVLPNPEQRG

Experiments:
[1] = DSF thermal stability of chaperone proteins; conditions: DSF of the recombinant chaperone protein
HLA-B*37:01 = HLA-B*37:01 (Homo sapiens, UniProt P01889, A329T/A93T/A95T/C349S/D138N/D201E/D98Y/E176V/E187T/E204Q/E69T/G107R/H137Y/K202T/L119I/N104T/N87E/Q94N/R106L/R155S/R180D/S101D/S121R/V306I/Y123S/Y140F/Y33H/Y91S); assay: SAB screen; assay type: binding; conditions: HLA-B*37:01 beads; FIG. 41
HLA-A*02:06 = biological target: T1, HLA-A*02:06 (Homo sapiens, UniProt P04439, D140Y/D185E/D98H/E176V/E277Q/F33Y/G131W/G231S/I119V/I121R/I166T/I218V/L300P/L318F/N151K/N90K/P208A/P217A/Q86G/Q94H/R138H/R169H/T345S); assay: Fluorescence polarization (FP) peptide exchange; assay type: biochemical; conditions: pHLA-A*02:06
T1 construct: made in house

HLA-B*08:01 = HLA-B*08:01 (Homo sapiens, UniProt P01889, A93T/A95T/D138N/E176V/E187T/K202T/Q94N/R180D/S35A/V36M/Y33D/Y91F); assay: Fluorescence polarization (FP) peptide exchange; conditions: based on DSF or FP assays
HLA-A*01:01 = HLA-A*01:01 (Homo sapiens, UniProt P04439, A114D/A174V/A182V/D101N/D185E/E176A/E190D/L180R/Q94H/R68K/S129P/T187R/V100A/V91M/W191G); assay: Fluorescence polarization (FP) peptide exchange; conditions: HLA-A*01:01, chaperone at 5 μM
HLA-A*02:01 [2] = biological target: T2, HLA-A*02:01 (Homo sapiens, UniProt P04439, D140Y/D185E/D98H/E176V/E277Q/G131W/G231S/I119V/I121R/I166T/I218V/L300P/L318F/N151K/N90K/P208A/P217A/Q86G/Q94H/R138H/R169H/T345S); assay: Fluorescence polarization (FP) peptide exchange; conditions: HLA-A*02:01/KILGFVFβFV, […]
HLA-A*02:01 [3] = biological target: T2, HLA-A*02:01; assay: SPR; conditions: peptide-deficient (empty) HLA-A*02:01
[4] = system: 96 different HLA allotypes on single antigen HLA class I beads; assay: SAB screen, all beads; assay type: binding, human; conditions: across HLA allotypes; FIG. 23e
Description: For the Single Antigen Bead Screen, 7 μM of TAPBPR in tetramers were mixed with 4 μL of the LABScreen single antigen HLA-I bead suspension (OneLambda, Inc., CA, USA) in a 96-well plate. The samples were incubated for 1 hour, 550 rpm at RT, washed four times in Wash Buffer (OneLambda, Inc., CA, USA) to remove excess of tetramers and re-suspended in 1×PBS buffer (pH 7.2). For the negative controls, beads were incubated with the Anti-HLA Class I antibody W6/32 (Abcam, ab22432) for 30 min, 550 rpm at RT and washed three times prior tetramer addition. To test the levels of peptide loaded MHC-I molecules on the beads, Applicants used the same W6/32 antibody and the secondary anti-mouse PE-conjugated antibody (Abcam, ab97024) for detection. The levels of TAPBPR bound to the beads were measured using the Luminex 100 Liquid Array Analyzer System and the results were analyzed in GraphPad Prism v7.
SABs screen. 7 μM of TAPBPR in tetramers were mixed with 4 μL of the LABScreen single antigen HLA-I bead suspension (OneLambda, Inc., CA, USA) in a 96-well plate. […] The levels of TAPBPR bound to the beads were measured using the Luminex 100 Liquid Array Analyzer System and the results were analyzed in GraphPad Prism v9.

HLA-A*02:01 [5] = biological target: T2, HLA-A*02:01; assay: Native gel shift assay (EMSA); assay type: binding; conditions: UV-irradiated HLA-A*02:01/KILGFVFJV, 1:1 molar ratio
Description: (§1) For native gel shift assays, purified MHC-I molecules refolded with photo-labeled peptides (pMHC-I) and TAPBPR proteins were loaded into polyacrylamide gels alone at 7 μM concentration and as mixtures. For the mixtures, 1:1 molar ratio of pMHC-I and TAPBPR samples at 7 μM each were prepared and incubated at room temperature (RT) for 1 hour. The samples were then UV-irradiated for another hour at 365 nm and were run at 90 V for 5.5 hours on a 12% polyacrylamide gel. Staining was performed using InstantBlue (Novus Biologicals).
as §1, with “Native gel” for “For native gel”, “shift assay. Purified” for “shift assays, purified”, “mixtures, a” for “mixtures,”, “each was” for “each were”, “at RT” for “at room temperature (RT)”

Molecule	Tm [1]	binding of Tapasin tetramers (MFI) (HLA-B*37:01)	k2overall, fold improved compared to hTAPBPR (HLA-A*02:06)	Peptide exchange (HLA-B*08:01)	apparent rate constant kapp (HLA-A*01:01)	k2overall, fold higher than hTAPBPR (HLA-A*02:01 [2])	Kd (HLA-A*02:01 [3])	MFI ratios [4]	TAPBPR/MHC-I complex formation (HLA-A*02:01 [5])
B1	58 °C	tight binding	–	–	–	–	–	–	–
B2	52.3 °C	–	approximately 9 fold	failed to catalyze peptide exchange	0.00013 s⁻¹	approximately 60 fold	243 nM	–	–
B3	56 °C	–	–	–	–	–	–	less than 5.8	formed a new band
